What all share (experiment): SPR; Biacore T200; […]; single-cycle kinetics; […]
(Surface plasmon resonance follows binding to a sensor surface in real time, without labels.)

For assay [1], the target named is GP1_(WWAV)–Fc (Whitewater Arroyo virus (WWAV)) (UniProt Q911P0).
The target in assay [2] is GP1_(JUNV)–Fc (Junín virus (JUNV)) (UniProt O10428).
The target in assay [3] is GP1_(MACV)–Fc (Machupo virus (MACV)) (UniProt Q8AZ52).

One may read the Kd as a measure of binding affinity in units of concentration. Regarding “stand-alone apical domain (sAD) designed from White-throated woodrat TfR1 (domain or fragment)”, the equilibrium dissociation constant (Kd) came to 1000 nM in assay [1], 1000 nM in assay [2] and 4 nM in assay [3].
